From the supplement of paper PMC10724198
± gives the standard deviation of the averaged measurements.

tested on: Saccharomyces cerevisiae; assay: protein stability index of tFT-peptide fusion (C-terminal peptide) (PSI (0-1 scale)); higher = more stable (slower turnover); conditions: genetic background: wild type; temperature: 30 C
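Further: PSI is a weighted mean of sequencing reads over stability bins, variants kept only with over 10 reads, mCherry proximal and sfGFP distal, peptide attached via GGGS linker.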

Point of comparison: FSTVIDFLAYLF, protein stability index 0.636 ± 0.036. Against it:
- LCDLGLMLFPFV — within error, 0.666 ± 0.032
- TFPPLLFVCSLL — within error, 0.594 ± 0.0078
- EGGRFTALSSTS — within error, 0.689 ± 0.039
- PPPPSRLPYNPF — within error, 0.662 ± 0.023
- QEALLAPEYSVD — higher, 0.7 ± 0.0096
- YPSRSPFLSLSC — within error, 0.683 ± 0.028
- GGGWGLRVSCGT — within error, 0.656 ± 0.071
- KNRKSPSMNSKE — higher, 0.716 ± 0.017
- SPAPLALSLRPP — within error, 0.668 ± 0.023
- RRTDHQRAVREI — higher, 0.731 ± 0.042
- GGRGGRGQGWYR — within error, 0.661 ± 0.007
- SLSHPSPPRTLP — higher, 0.697 ± 0.007
- SNLYNNQEQDHT — within error, 0.723 ± 0.058
- SRLQIRIRINEV — within error, 0.572 ± 0.032
- VREGTKDGGSRV — lower, 0.544 ± 0.042
- PLCVPPRRLFPP — within error, 0.716 ± 0.072
- EFVFLLSNTFNS — higher, 0.749 ± 0.03
- STAEFLDFKMTT — within error, 0.691 ± 0.05
- VICRGGHVLLES — within error, 0.72 ± 0.098
- CSLLFFFLLSFG — lower, 0.521 ± 0.021
- VPSPPCPPHLPI — within error, 0.655 ± 0.012
- TTQGICWMAKGV — higher, 0.695 ± 0.0088
- AEAVQQGVTIGG — within error, 0.68 ± 0.014
- RNTIKTKKSNYV — within error, 0.654 ± 0.015
- TLGALEVSVYET — within error, 0.614 ± 0.0097
- YVGLAAGEVGMG — within error, 0.661 ± 0.02
- AAGLHFYIFRGI — within error, 0.669 ± 0.025
- VKVWRTILRLLD — lower, 0.535 ± 0.0097
- RNKINKKKLKKG — higher, 0.7403 ± 0.0062
- GAPTPPGAPPPA — within error, 0.6642 ± 0.0048
- GGCCLWVGFPGG — higher, 0.6957 ± 0.0051
- PYRWQTRPDAVD — within error, 0.666 ± 0.014
- ISHAGSVPDRSV — within error, 0.701 ± 0.04
- VGACWGCGVCPL — higher, 0.755 ± 0.049
- PPPLTPSPPPPP — within error, 0.663 ± 0.021
- HVRSPLRRVEKF — higher, 0.6988 ± 0.006
- RRRGQDEGKQKR — higher, 0.7511 ± 0.0059
- NAFTMWVSRQAR — higher, 0.77 ± 0.02
- VRSGKGKNRWNK — higher, 0.719 ± 0.024
- RLGIADHEYPCE — within error, 0.673 ± 0.011
- GGGGCVGEWWGR — higher, 0.7423 ± 0.0039
- NKKKKTAIPPKR — within error, 0.672 ± 0.021
- AYCVPPAFPFPL — within error, 0.627 ± 0.044
- LFVSLLGAFVVG — lower, 0.529 ± 0.03
- WPASLCRLGSVH — within error, 0.64894 ± 0.00014
- CCCELNTEIVQT — within error, 0.682 ± 0.059
- FFCLWFLSFLRF — lower, 0.572 ± 0.01
- FSPAPPLLLHPS — within error, 0.714 ± 0.043
- SLLLPLPLPVRL — lower, 0.582 ± 0.0086
- RITTNQMNIKFI — within error, 0.653 ± 0.02
- MGYPGFGRVPYV — within error, 0.723 ± 0.053
- GGLRGRPPASHR — within error, 0.727 ± 0.074
- FSPALPPSHSPP — within error, 0.676 ± 0.057
- IKRKQRKRKSEK — higher, 0.86 ± 0.14
- AKSKVAGNVGGD — within error, 0.669 ± 0.017
- GIYLEESPMRKF — higher, 0.708 ± 0.014
- RVRAITRKCGQY — within error, 0.656 ± 0.051
- SPPPGLSVILLH — within error, 0.6 ± 0.054
- PAPPPPRRPLPP — within error, 0.657 ± 0.0086
- VVARFDTILLWS — within error, 0.608 ± 0.06
- SFLPPLFPHPPP — higher, 0.841 ± 0.031
- APACRLTLVSDF — higher, 0.752 ± 0.014
- PPTPPLPPRLPP — higher, 0.686 ± 0.0098
- LDAMNTSWYVKM — within error, 0.676 ± 0.025
- YFKLLHSRPSVG — within error, 0.675 ± 0.044
- IEETKDYTRKRQ — within error, 0.6484 ± 0.0034
- TPDVLGPLFPGD — within error, 0.642 ± 0.099
- NVTCRPDKNELT — within error, 0.643 ± 0.035
- PPPPSPRPRPAP — within error, 0.657 ± 0.025
- PPDPPPYAPPPP — within error, 0.648 ± 0.015
- GVCWVTAGLWAI — within error, 0.6098 ± 0.0021
- APLFASSASIPL — within error, 0.716 ± 0.11
- RQRGNMEIRIRR — higher, 0.709 ± 0.027
- HDRRKAFHVVWL — within error, 0.663 ± 0.039
- PSHPSPPPPAPP — within error, 0.692 ± 0.041
- APKYPIQEWIKL — within error, 0.594 ± 0.031
- PPLLPPAPLFPP — within error, 0.694 ± 0.025
- LIHCVSTFRCGE — within error, 0.622 ± 0.026
- VMLSYCHNLTKI — within error, 0.646 ± 0.074
- PPSPPPPPVVVP — within error, 0.606 ± 0.11
- LPDAPCLCSGLL — higher, 0.714 ± 0.013
- KHNRISEKHQKS — within error, 0.643 ± 0.0095
- GVRNISELSRLF — within error, 0.644 ± 0.019
- DIIGMPLLMKKK — within error, 0.693 ± 0.03
- VRVCGPSCFRPG — within error, 0.628 ± 0.05
- CGHVRSLAMAHN — within error, 0.68 ± 0.019
- YIRSYRITKREE — within error, 0.656 ± 0.035
- CGVRQVGEIAVA — lower, 0.526 ± 0.022
- ISRLLVLCRDLT — within error, 0.65 ± 0.033
- NTRGRGQCCQGN — within error, 0.576 ± 0.053
- LVILLLQLLSGT — lower, 0.51758 ± 0.00046
- PPPPPPPPPPTL — higher, 0.712 ± 0.028
- NCTHKKKTLTPN — higher, 0.726 ± 0.012
- DASELLGRPVVL — higher, 0.748 ± 0.012
- ALSSVPPCSLPP — within error, 0.637 ± 0.016
- KNCKEQRKTIQI — higher, 0.713 ± 0.026
- IACSLSSFSPVW — within error, 0.687 ± 0.031
- YEASSIPAWRYV — lower, 0.529 ± 0.034
- HIFAQSFLNIRI — within error, 0.709 ± 0.04
- LEKKRRKNKKEG — within error, 0.787 ± 0.14
